Where two headings read alike, the source gives them in different places.
B1: ObiH: known L-threonine transaldolase of obafluorin biosynthesis, SEQ ID NO: 30, Pseudomonas fluorescens, ARJ35753.1 (protein)
chain: MSNVKQQTAQIVDWLSSTLGKDHQYREDSLSLTANENYPSALVRLTSGSTAGAFYHCSFPFEVPAGEWHFPEPGHMNAIADQVRDLGKTLIGAQAFDWRPNGGSTAEQALMLAACKPGEGFVHFAHRDGGHFALESLAQKMGIEIFHLPVNPTSLLIDVAKLDEMVRRNPHIRIVILDQSFKLRWQPLAEIRSVLPDSCTLTYDMSHDGGLIMGGVFDSPLSCGADIVHGNTHKTIPGPQKGYIGFKSAQHPLLVDTSLWVCPHLQSNCHAEQLPPMWVAFKEMELFGRDYAAQIVSNAKTLARHLHELGLDVTGESFGFTQTHQVHFAVGDLQKALDLCVNSLHAGGIRSTNIEIPGKPGVHGIRLGVQAMTRRGMKEKDFEVVARFIADLYFKKTEPAKVAQQIKEFLQAFPLAPLAYSFDNYLDEELLAAVYQGAQR
modifications: Psuedomonas fluorescenes
B2: PiTTA: TTA, SEQ ID NO: 31, Pseudomonas sp. Irchel s3a18 (protein)
chain: MKQDESNVGPVIDWLAQTLGQDYKYRQDTLSLTANENYPSELVRLTSGSTAGAFYHCSFPFPVPLGEWHFPEPGQMNEIADDLRGLAKRMMGAQAFDWRPNGGSPAEQALMLAACKQGEGFVHFAHRDGGHFALEQLATKMGIEIFHLPVDPQSLLIDVAKLDDMVRRNPHIRIVILDQSFKLRWQPLAEIRAILPDSCTLTYDMSHDGGLILGGVFDSPLACGADIAHGNTHKTIPGPQKGFIAFKSAQHPLLVETSLWVCPHLQSNCHAELLPSMWAAFKEMEAFGPAYAHQMVRNAKALANQLHELGLNVSGESFGFTETHQVHFAVGDLQQALSMCVDSLHAGGIRSTNIEIPGKPGMHGIRLGVQAMTRRGMKEDDFRRVAGLIADLYFKRTEPARVASKVKELLGDFPLAPLAYSFDQQIDESRRRLLERGIQR
modifications: Pseudomonas_sp._Irchel_s3a18
notes: Irchel s3a18
B3: KaTTA: L-threonine transaldolase, SEQ ID NO: 1, Kitasatospora aureofaciens, WP_033354341 (protein, listed as Kitasatospora aureofaciens)
chain: MDVLAALERKHSLNLFPIENRLSPRAAAALASDAVNRYPYSETDVAVYGDVSDLNAVYDHCVSLTKEFYGARHAYVQFLSGLHTMHTVLTAVTPPGGRVMVIAPEDGGHYATVTICQGFGYRVEYVPFDRQTLEIDYTALAERTAEHPADVIYLDASTVLRMPDARALRAAAPGAVLCLDASHLLGLLPAAPGTLVLDAGFDSISGSTHKTLPGPQKGLLVTNSDAIAEQVGARIPFTASSSHSASVGSLAITLEELLPHRGDYARQVIANARELARQLAARGFDVAGEAFGFTDTHQVWVHHPEGNTPHEWGRLLTATDIRTTTVVLPSTARSGLRLGTQELTRWGMKEDDMTTVAELLARLLLRGEQSRSVAADVRDLARSFPGVAFADRPAPLAVA
B4: BuTTA: TTA, SEQ ID NO: 34, Burkholderia ubonensis (protein, listed as Burkholderia ubonensis)
chain: MTDFAQAVVNPFVDEQRKSRLVEKISNIFDSLHSDFALDNLYRASHLSLTASENYPSRFVRTLGAGMQGGFYEFAPPYAANPGEWYFPDSGAQSSLVEKLASLGKQLFEANSFDWRPNGGSAAEQAVLLGTCARGDGFVHFAHKDGGHFALEELAQKVGVSIFHLPIEEKSLLIDVDRLATLIKDNPHIKLVILDQSFKLRWQPLLQIRQALPESVVLSYDASHDGGLIIGECLPQPLLFGADIVHGNTHKTIPGPQKGYIAFKNVDHPAMKHVSDWVCPHLQSNSHAELIAPMYIALVEMSLYGRSYAEQVIKNAKALAHALHAEGVRVSGESFGFTETHQVHVVVGSERKALELVTGTLALAGIRCNNIEIPGANGLFGLRLGVQALTRRGIKEHGMAEVARFLVRLILKNESPTAIRNEIASFLESYPINTLHYSLDAHYYTPSGIKLMEEVIA
B5: CsTTA: TTA, SEQ ID NO: 33, Chitiniphilus shinanonensis (protein, listed as Chitiniphilus shinanonensis)
chain: MTRTTPQARHVVERLNSVLGQDYRYREDCLSLTANENYPSALVRLAGSATAGAFYHCSFPFEVPPGEWYFPESGRMGELAQQLNELGRSLLGAGTFDWRPNGGSPAEQALMLAACKHGEGMVHFAHRDGGHFALENLAQKAGIDIFHLPVDPQTLLIDVARLDELVRRNPQIRIVILDQSFKLRWQPLAAIRKVLPPSCTLTYDTSHDGGLIMGGVFDSPLHCGADVIHGNTHKTVPGPQKGYIAFKSAEHPLLVDTSLWLCPHLQSNCHAELLPPMWVAFKEMEAFGHDYAPQVARNAKALAGHLHRLGFEVSGEAFGFTETHQVHFAVGDLQQALDLCMNTLHRGGIRSTNIEIPGKPGIQGIRLGVQAMTRRGLREDDFEQVARFIADLHFRKADPAGVAAQVAEFLRAFPLAPLHYSFDQELDHELLQSLIGEALR

Tests used:
[1] = literature value; ObiH: 4-nitrophenylacetylaldehyde (15), discontinuous HPLC assay; read-out: reported L-Thr KM; cited from earlier work
[2] = TTA-ADH coupled assay at different L-Thr concentrations (apparent L-Thr KM and kcat); format: biochemical; conditions: for Km: apparent, phenylacetaldehyde (14) as aldehyde, ADH coupling, non-linear regression; for L-Thr kcat compared with ObiH: phenylacetaldehyde as the aldehyde substrate
Description: (§1) High-throughput screening of purified TTAs was performed with a TTA-ADH coupled assay using purified TTA and commercially available alcohol dehydrogenase from S. cerevisiae purchased from MilliporeSigma. Aldehyde stocks were prepared in 50-100 mM solutions in DMSO or acetonitrile. Reaction mixtures were prepared in a 96-well plate with 100 μL of 100 mM phosphate buffer pH 7.5, 0.5 mM NADH, 0.4 mM PLP, 15 mM MgCl2, and 100 mM L-Thr with the addition of 0.25 mM to 1 mM aldehyde depending on the background absorbance at 340 nm (Table 4), 10 U ScADH, and 0.25 μM purified TTA unless otherwise specified. Reactions were initiated with the addition of enzyme. […] The following controls were included for every assay: reaction mixture without aldehyde, without TTA, and without enzyme (TTA or ADH). Rates were calculated by identifying the linear region at the beginning of the kinetic run and converting the depletion in absorbance to the depletion of mM NADH using an NADH standard curve.
We next sought to determine the affinity of these enzymes for L-Thr, which we obtained by performing the TTA-ADH coupled assay at different L-Thr concentrations (FIG. 16b). […] Two differences between our assays were the substrate, phenylacetaldehyde (14) instead of 4-nitrophenylacetylaldehyde (15), and the assay format, ADH coupling rather than a discontinuous HPLC assay. Because a live cellular environment would also contain alcohol dehydrogenases for reduction of acetaldehyde, it is possible that the KM values that we are measuring using the TTA-ADH coupled assay may be more realistic for our envisioned applications.

[3] = TTA-ADH coupled assay, substrate scope of TTAs on aromatic aldehydes; format: biochemical; conditions: for activity on a set of aromatic aldehyde substrates (substrate scope): substrates 1, 3, 6, 7, 8, 12, 15
Description: as §1
We specifically selected substrates with ring substituents with different electron withdrawing properties (1, 3, 6, 7, 8), substituent size (12), and aldehyde chain length (15) to compare the activity of the putative TTAs to ObiH. We were also encouraged by the activity of PbTTA and KaTTA on vanillin and protocatechualdehyde which are substrates that would form products like commercially available therapeutic, Droxidopa (FIG. 18).
To explore the possibility that DbTTA and TmTTA are TTAs active on other related aldehydes, we sought to examine their activity with L-Thr and aldehyde substrates with different ring substituent position (2), bulkier, hydrophobic chemistry (10), and aldehyde chain length (14) using the TTA-ADH coupled assay.

[4] = TTA-ADH coupled assay, screen of purified TTAs on 2-nitro-benzaldehyde; format: biochemical; conditions: substrate 3, TTA-ADH coupled assay
Description: as §1
Once purified, we identified the putative TTAs with high activity and further characterized them for their L-Thr affinity and substrate scope. We first screened each purified enzyme using the TTA-ADH coupled assay with 2-nitro-benzaldehyde, 3, the best performing substrate from the screen of ObiH that was not a substrate of the ScADH. […] With this evidence as well as well-aligned, predicted AlphaFold structures, we assumed the impact of the SUMO tag would be minimal for all TTAs screened and moved forward with additional enzyme characterization.

[5] = In vitro assay over 20 h with HPLC analysis (amino acid substrate specificity, diastereomeric excess); format: biochemical; conditions: 3 as aldehyde substrate
Description: Metabolites of interest were quantified via high-performance liquid chromatography (HPLC) using an Agilent 1260 Infinity model equipped with a Zorbax Eclipse Plus-C18 column. To quantify aldehyde and β-OH-nsAAs, an initial mobile phase of solvent A/B=95/5 was used (solvent A, water+0.1% TFA; solvent B, acetonitrile+0.1% TFA) and maintained for 5 min. A gradient elution was performed (A/B) as follows: gradient from 95/5 to 50/50 for 5-12 min, gradient from 50/50 to 0/100 for 12-13 min, and gradient from 0/100 to 95/5 for 13-14 min. A flow rate of 1 mL min-1 was maintained, and absorption was monitored at 210, 250 and 280 nm.
We performed an in vitro assay over 20 h using 3 as the aldehyde substrate and either L-Thr, Glycine (Gly), or L-Serine (L-Ser) as the candidate amino acid. Since the TTA-ADH coupled assay is specific to L-Thr, we analyzed TTA activity via HPLC with a chemically synthesized β-OH-nsAA standard for the assumed product from 3.

| Molecule | Km [1] [mM] | Km [2] [mM] | activity on a set of aromatic aldehyde substrates (substrate scope) [3] | activity on 2-nitro-benzaldehyde relative to ObiH [4] | L-Thr kcat compared with ObiH [2] | β-OH-nsAA formation using L-Ser or Gly [5] | activity on vanillin and protocatechualdehyde ([3]; TTA-ADH coupled assay) |
| --- | --- | --- | --- | --- | --- | --- | --- |
| B1 | 40.2 ± 3.8 | 29.5 | – | – | – | – | – |
| B2 | – | – | relatively selective | comparable to or better than ObiH | higher measured L-Thr kcat values than ObiH | no β-OH-nsAA formation | – |
| B3 | – | 19.1 | – | comparable to or better than ObiH | – | no β-OH-nsAA formation | activity |
| B4 | – | – | relatively selective | comparable to or better than ObiH | higher measured L-Thr kcat values than ObiH | no β-OH-nsAA formation | – |
| B5 | – | – | – | comparable to or better than ObiH | higher measured L-Thr kcat values than ObiH | no β-OH-nsAA formation | – |

Reference: patent US20250215467A1, “L-THREONINE TRANSALDOLASES AND USES THEREOF” (University of Delaware, priority 2022, published 2025)
